In publication doi:10.1101/2021.01.30.428938:
Where “and” joins values, the source holds several entries; their conditions need not be identical. Identical values can stand only once.

Assays:
[1] = biological target: Theileria parva schizont antigen Tp2, full-length native, bacterially expressed with His-tag (Theileria parva (Muguga)); assay: SEC-MALS
[2] = biological target: Theileria parva schizont antigen Tp2, full-length native, bacterially expressed with His-tag (Theileria parva (Muguga)); assay: SEC

For “Theileria parva schizont antigen Tp2, full-length native, bacterially expressed with His-tag (natural protein)”, the stoichiometry N [1] was 2 and the stoichiometry N [2] was 4 and 2.
